Results taken from paper PMC4117764.

Target: GST-tagged p21C-terminal peptide
Experiment: pull-down

extent of PCNA depletion: > 95%
Substance: proliferating cell nuclear antigen (PCNA), endogenous (from UniProt P12004 1-261) (natural protein)
